Assay results: PMC12698673 (Communications Biology, 2025)
Each block holds one binder with its values, some of them ahead of it. Ends that are not written are not given here. * marks the point of attachment. MTSL = CC1(C)C=C(CS*)C(C)(C)N1[O]

B1: CBP-KIX MLLmut (I660A and L664A) (domain or fragment)
chain: not shown
B2: CBP-KIX c-Mybmut (Y650A, A654Q, and Y658A) (domain or fragment)
chain: not shown
B3: FOXO4-CR3 (conserved region 3, transactivation domain of FOXO4, aa 469–505) (domain or fragment, UniProt P98177 469-505, looked up)
chain: DLDLDMYMENLECDMDNIISDLMDEGEGLDFNFEPDP

What was measured:
[1] = molecular target: B3; test: ITC
[2] = molecular target: B2; test: NMR titration
[3] = molecular target: KIX domain of CBP (CBP-KIX, aa 586–672) (UniProt P45481 586-672); test: ITC
Sequence of KIX domain of CBP (CBP-KIX, aa 586–672) (P45481 586-672): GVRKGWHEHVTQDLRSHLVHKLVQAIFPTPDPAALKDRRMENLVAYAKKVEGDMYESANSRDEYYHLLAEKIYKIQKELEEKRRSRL

[4] = molecular target: B1; test: ITC
[5] = molecular target: B2; test: ITC
[6] = molecular target: B2; test: paramagnetic relaxation enhancement

Binder: B1
dH [1]: -19.2 kJ/mol

Binder: B2
dH [1]: -5.98 kJ/mol

binding result [2]: binds
Binder: DLDLDMYMENLECDMDNIISDLADEGEGLDFNFEPDP (domain or fragment, UniProt P98177 469-505, looked up) [FOXO4-CR3 M491A]

Binder: B3
Kd [3]: 3.35 ± 0.14 µM
Kd [4]: 2760 nM
Kd [5]: 1200 nM

binding result [6]: binds
Binder: DLDLDMYMENLEC(MTSL)DMDNIISDLMDEGEGLDFNFEPDP (domain or fragment, UniProt P98177 469-505, looked up) [FOXO4-CR3 labelled with MTSL at C481]
